The record followed here is patent WO2013078377A1.

Experiment [1] has as its target cynomolgus monkey CD98 as used in SPR, Octet and ELISA (cynomolgus monkey) (UniProt I7GH21). Kind of experiment: Biacore and Octet.
Experiment [2] deals with human CD98 as used in ELISA, BIACORE and Octet assays (human) (UniProt P08195). The experiment in a line: Biacore and Octet.
Chain of UniProt P08195 (P08195 206-630 limits assumed, form in doubt): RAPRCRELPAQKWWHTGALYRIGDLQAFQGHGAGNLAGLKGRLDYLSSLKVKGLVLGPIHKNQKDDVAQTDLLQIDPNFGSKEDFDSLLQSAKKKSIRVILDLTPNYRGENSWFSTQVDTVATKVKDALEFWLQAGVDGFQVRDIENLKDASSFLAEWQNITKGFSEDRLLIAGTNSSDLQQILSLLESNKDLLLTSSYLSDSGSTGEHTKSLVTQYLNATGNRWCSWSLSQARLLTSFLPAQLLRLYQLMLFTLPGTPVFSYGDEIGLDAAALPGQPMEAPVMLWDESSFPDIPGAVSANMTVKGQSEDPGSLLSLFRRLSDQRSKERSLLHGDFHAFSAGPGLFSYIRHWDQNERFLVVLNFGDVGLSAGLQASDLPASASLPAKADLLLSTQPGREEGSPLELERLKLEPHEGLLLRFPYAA

As to “humanized anti-CD98 monoclonal antibody IGN523”, the Kd in experiment [1] lay within 8 to 14 nM; in experiment [2], 2 to 6 nM.
